Our source for the fluorescence ratio of rigor-KIF5::GFP to tubulin staining, in axons and fluorescence ratio of rigor-KIF5::GFP to tubulin staining, in dendrites values is paper PMC2172855.

The target of this assay is microtubules of cultured mouse hippocampal neurons (mouse (endogenous in cultured hippocampal neurons)) (UniProt P68369). In words: immunostaining of cells or tissue.

Consider “tailless KIF5B G234A::YFP (from UniProt Q61768 1-761) (domain or fragment)”, for which the fluorescence ratio of rigor-KIF5::GFP to tubulin staining, in axons turned out to be 1.2 and the fluorescence ratio of rigor-KIF5::GFP to tubulin staining, in dendrites came to 0.5.
